Results on 4 molecules are retold here after patent publication US20060159683A1 (UNIVERSITY OF ZURICH, published 2006).

The target of experiment [1] is T1, recombinant soluble human epithelial glycoprotein-2 (M1-F259) with a six-histidine C-terminal tag (human, UniProt P16422 24-259).
T1 construct: range 1-259; In SPR it was amine-coupled to a CM-5 chip at 350 RU; also called recombinant soluble EGP-2-antigen; immobilized EGP-2
T1 sequence: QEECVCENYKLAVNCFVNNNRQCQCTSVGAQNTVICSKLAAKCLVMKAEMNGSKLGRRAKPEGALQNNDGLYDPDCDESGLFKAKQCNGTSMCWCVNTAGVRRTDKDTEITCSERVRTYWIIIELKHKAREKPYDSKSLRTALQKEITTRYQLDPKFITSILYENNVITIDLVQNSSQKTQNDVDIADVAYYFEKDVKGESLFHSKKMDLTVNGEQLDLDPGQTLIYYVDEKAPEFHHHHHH
Kind of experiment: SPR (BIAcore), EGP-2 immobilized, 20 C. As to the method:
(§1) Kinetic rate constants were determined by surface plasmon resonance (SPR) with a BIAcore instrument. Recombinant soluble EGP-2-antigen was covalently coupled to a CM-5 sensor chip via free amine groups resulting, in a surface coverage of 350 resonance units. Single-chain Fv fragments were injected in increasing concentrations (0.1 nM 4.4 μM) at a flow rate of 30 μl/min of degassed PBS/0.005% Tween-20. Association and dissociation rate constants were calculated from the sensorgram the by a global curve fit using the BIAevaluation 3.0 software (Pharmacia).
(§2) To minimize rebinding effects which could lead to an underestimation of the off-rates, we used low density coating and high flow rate.
On the technique in general: Surface plasmon resonance follows binding to a sensor surface in real time, without labels.

For experiment [2], the target named is T2, epithelial glycoprotein-2 (EGP-2) on SW2 human small cell lung carcinoma cells (human, UniProt P16422 24-314).
T2 construct: whole, on cells; also called GA733-2; Ep-CAM
T2 sequence (looked up): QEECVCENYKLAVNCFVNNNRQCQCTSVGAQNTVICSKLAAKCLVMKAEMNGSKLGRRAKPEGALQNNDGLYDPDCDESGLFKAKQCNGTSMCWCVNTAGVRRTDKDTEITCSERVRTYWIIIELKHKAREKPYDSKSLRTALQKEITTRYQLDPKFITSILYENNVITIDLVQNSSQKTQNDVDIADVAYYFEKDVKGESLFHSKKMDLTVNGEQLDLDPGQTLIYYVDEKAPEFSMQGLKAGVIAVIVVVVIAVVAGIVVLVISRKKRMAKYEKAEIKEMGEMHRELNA
Kind of experiment: RIA, 99mTc-labelled scFv on SW2 cells, 4 C. As to the method: The binding affinity of the ^99mTc labelled single-chain Fv fragments was determined on SW2 cells in a radioimmunoaffinity assay (RIA). SW2 (0.5×10⁶) cells were incubated with increasing amounts of single-chain Fv fragment (100 pM-30 nM) for 1 hour at 4° C. For estimation of nonspecific binding control samples of cells were pre-incubated with a 100-fold excess of unlabelled single-chain. Fv fragment for 1 h at 4° C. The bound fraction of single-chain Fv fragment was determined in a scintillation counter. Each obtained value represents the mean of two samples. Counts per minutes (cpm) were plotted against the nanomolar concentration of single-chain Fv fragment and fitted with the non-linear regression function.
High-affinity binding with long residual time on the specific target antigen is regarded as one of the most important characteristics of antibodies for tumor targeting. To ensure that binding affinity was conserved in the grafting experiment dissociation constants of the radiolabelled single-chain Fv fragment were determined on cells in a radioimmunoactrvity assay (RIA).

In experiment [3] the target is T1, recombinant soluble human epithelial …. Kind of experiment: SPR (BIAcore), EGP-2 immobilized, low density coating and high flow rate. As for the experimental part:
as §1, §2

Experiment [4] deals with T3, c-erbB2 (UniProt P04626 23-652, limits assumed).
T3 construct: also called p185Her2
Kind of experiment: solid-phase RIA, 99mTc-labelled scFv on coated antigen. As for the experimental part: (§3) In three washing steps cells were centrifuged at 1000 g for 5 min at 4° C., the supernatants discarded and the cells re-suspended in PBS/1% BSA. The remaining radioactivity was then measured in a scintillation counter. In a further binding experiment both-scFv fragments (50 ng) were incubated with different antigens, coated (500 ng/well) on a 96 well microtiter plate, to check for cross-reactivity. The wells were washed three times with PBS/1% BSA and the radioactivity was determined.

Experiment [5] concerns the target T4, EGF-receptor (extracellular domain) (UniProt P00533 25-645).
T4 construct: extracellular domain
The description is as above. As for the experimental part: as §3

Experiment [6] deals with T2, epithelial glycoprotein-2 (EGP-2) on …. The experiment in a line: competition RIA on SW2 cells against 99mTc-labelled 4D5MOC-A and 4D5MOC-B. As for the experimental part:
as §3

By Kd is commonly meant the concentration at which binding is half-saturated. One may read the koff as the first-order rate constant of dissociation. The term kon denotes a measure of how fast the partners come together.

B1: anti-EGP-2 scFv fragment obtained from the murine hybridoma MOC31 (scFv)
scFv: DIVMTQSAFSNPVTLGTSASISCRSTKSLLHSNGITYLYWYLQKPGQSPQLLIYQMSNLASGVPDRFSSSGSGTDFTLRISRVEAEDVGVYYCAQNLEIPRTFGGGTKLEIKRTPSHNSHQVPSAGGPTANSGTSGSQVQLQQSGPELKKPGETVKISCKASGYTFTNYGMNWVKQAPGRGLKWMGWINTYTGESTYADDFKGRFAFSLETSASAAYLQINNLKNEDTATYFCARFAIKGDYWGQGTTLTVSS
modifications: 99mTc-tricarbonyl bound to the C-terminal His tag in the RIA and Lindmo assays; unlabelled in SPR
notes: Murine scFv expressed from vector pAK400 in E. coli periplasm and purified by IMAC through its His tag; also called scFv MOC31; MOC31 scFv
As to B1, in experiment [1], the Kd turned out to be 3 nM, the koff was 0.0003 s⁻¹ and the kon was 99000 M⁻¹ s⁻¹. The same molecule came in with a Kd in experiment [2] of 10.8 nM. Also, the half-life of binding in experiment [3] is approximately 38 min.

B2: anti-EGP-2 scFv fragment 4D5MOC-A (scFv)
scFv: DIQMTQSPSSLSASVGDRVTITCRSTKSLLHSNGITYLYWYQQKPGKAPKLLIYQMSNLASGVPSRFSSSGSGTDFTLTISSLQPEDFATYYCAQNLEIPRTFGQGTKVELKRTPSHNSHQVPSAGGPTANSGTSGSEVQLVESGGGLVQPGGSLRLSCAASGYTFTNYGMNWVRQAPGKGLEWMGWINTYTGESTYADSVKGRFTFSLDTSASAAYLQMNSLRAEDTAVYYCARFAIKGDYWGQGTLVTVSS
modifications: 99mTc-tricarbonyl complexed to the C-terminal His tag in the RIA and Lindmo assays; unlabelled in SPR. The tag itself is not in the letters.
notes: the others are not; Expected mass 29,855 Da; also called scFv 4D5MOC-A; graft variant 4D5MOC-A
Take B2: the Kd came to 3.5 nM in experiment [1] and 3.6 nM in experiment [2].

B3: anti-EGP-2 scFv fragment 4D5MOC-B (scFv)
scFv: DIQMTQSPSSLSASVGDRVTITCRSTKSLLHSNGITYLYWYQQKPGKAPKLLIYQMSNLASGVPSRFSSSGSGTDFTLTISSLQPEDFATYYCAQNLEIPRTFGQGTKVELKRTPSHNSHQVPSAGGPTANSGTSGSEVQLVQSGPGLVQPGGSVRISCAASGYTFTNYGMNWVKQAPGKGLEWMGWINTYTGESTYADSFKGRFTFSLDTSASAAYLQINSLRAEDTAVYYCARFAIKGDYWGQGTLLTVSS
modifications: 99mTc-tricarbonyl bound to the C-terminal His tag in the RIA and Lindmo assays; unlabelled in SPR
notes: Expected mass 29,897 Da; also called scFv 4D5MOC-B
As to B3, in experiment [1], the Kd came to 3.9 nM, the koff turned out to be 0.000717 s⁻¹ and the kon was found to be 184000 M⁻¹ s⁻¹. The Kd in experiment [2] came out at 3.7 nM. Moreover, the binding result in experiment [4] is reported as “no binding (tested: 50 ng scFv on 500 ng/well antigen)”. In experiment [5], the binding result was “no binding (tested: 50 ng scFv on 500 ng/well antigen)”.

B4: murine monoclonal antibody MOC31 (antibody, V domains shown)
VH: QVQLQQSGPELKKPGETVKISCKASGYTFTNYGMNWVKQAPGRGLKWMGWINTYTGESTYADDFKGRFAFSLETSASAAYLQINNLKNEDTATYFCARFAIKGDYWGQGTTLTVSS
VL: DIVMTQSAFSNPVTLGTSASISCRSTKSLLHSNGITYLYWYLQKPGQSPQLLIYQMSNLASGVPDRFSSSGSGTDFTLRISRVEAEDVGVYYCAQNLEIPRTFGGGTKLEIK
notes: Whole murine antibody from hybridoma MOC31; also called mAb MOC31
As for B4, the binding result in experiment [6] is “binds”.
